The values below come from paper PMC8533642 (Journal of medicinal chemistry, 2021).

One assay concerns the target mMC3R (Mus musculus, UniProt P33033). Briefly: AlphaScreen cAMP agonist assay, HEK293 cells stably expressing mMC3R. Type of assay: cell-based. Conditions: at 100 μM.
The next assay concerns the target mMC1R (Mus musculus, UniProt Q01727). Briefly: AlphaScreen cAMP agonist assay, HEK293 cells stably expressing mMC1R. The class given is cell-based. The conditions noted are these: for mMC1R agonist activity in words: full agonist = 90% of maximal NDP-MSH signal. A general note: Bead proximity is the source of the signal in Alpha formats.
The target of assay [1] is mouse melanocortin-1 receptor (mouse) (UniProt Q01727).
In assay [2] the target is mouse melanocortin-4 receptor (mouse) (UniProt P56450).
The target of assay [3] is mouse melanocortin-5 receptor (mouse) (UniProt P41149).
Assay [4] concerns the target mouse melanocortin-3 receptor (mouse) (UniProt P33033).
Assay [5] has as its target mouse melanocortin-4 receptor (mouse) (UniProt P56450). This is another data set of the same source.
Assay [6] deals with mouse melanocortin-3 receptor (mouse) (UniProt P33033). The source holds these as a separate data set.

Square brackets hold non-standard residues; d marks the D form. Peptide text beside a SMILES is read from it. dPhe(4-I) = N[C@H](Cc1ccc(I)cc1)C(=O)O; 2Nal = N[C@@H](Cc1ccc2ccccc2c1)C(=O)O; d2Nal = N[C@H](Cc1ccc2ccccc2c1)C(=O)O

mouse melanocortin-5 receptor (mouse), sequence (P41149 whole entry): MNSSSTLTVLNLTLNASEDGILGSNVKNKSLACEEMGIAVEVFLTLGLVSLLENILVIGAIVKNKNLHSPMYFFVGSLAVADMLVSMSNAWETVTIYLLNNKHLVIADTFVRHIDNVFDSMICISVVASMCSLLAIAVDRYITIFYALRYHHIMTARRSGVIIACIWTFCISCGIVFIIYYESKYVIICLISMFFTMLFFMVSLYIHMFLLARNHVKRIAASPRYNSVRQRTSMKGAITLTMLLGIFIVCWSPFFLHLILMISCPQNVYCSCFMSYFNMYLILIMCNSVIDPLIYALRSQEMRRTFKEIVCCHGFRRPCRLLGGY
mouse melanocortin-4 receptor (mouse), sequence (P56450 whole entry): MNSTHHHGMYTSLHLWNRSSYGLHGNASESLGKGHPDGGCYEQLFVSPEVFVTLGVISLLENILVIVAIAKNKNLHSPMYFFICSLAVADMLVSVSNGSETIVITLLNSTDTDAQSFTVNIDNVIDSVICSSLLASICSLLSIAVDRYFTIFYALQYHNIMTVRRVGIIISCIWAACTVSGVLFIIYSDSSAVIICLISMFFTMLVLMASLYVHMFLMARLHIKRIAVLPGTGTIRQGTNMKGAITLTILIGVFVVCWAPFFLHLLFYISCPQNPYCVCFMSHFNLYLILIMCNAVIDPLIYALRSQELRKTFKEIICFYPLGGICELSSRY
mouse melanocortin-1 receptor (mouse), sequence (Q01727 whole entry): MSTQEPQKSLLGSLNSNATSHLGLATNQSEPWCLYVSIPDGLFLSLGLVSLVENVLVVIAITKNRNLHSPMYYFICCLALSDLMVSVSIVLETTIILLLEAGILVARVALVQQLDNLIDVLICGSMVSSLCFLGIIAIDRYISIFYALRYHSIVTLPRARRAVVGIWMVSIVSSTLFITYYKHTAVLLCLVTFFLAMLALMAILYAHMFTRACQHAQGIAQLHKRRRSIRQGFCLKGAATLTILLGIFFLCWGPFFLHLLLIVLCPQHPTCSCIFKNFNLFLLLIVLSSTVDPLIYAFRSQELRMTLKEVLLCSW
mMC1R, sequence (Q01727 whole entry): as above
mMC3R, sequence (P33033 whole entry): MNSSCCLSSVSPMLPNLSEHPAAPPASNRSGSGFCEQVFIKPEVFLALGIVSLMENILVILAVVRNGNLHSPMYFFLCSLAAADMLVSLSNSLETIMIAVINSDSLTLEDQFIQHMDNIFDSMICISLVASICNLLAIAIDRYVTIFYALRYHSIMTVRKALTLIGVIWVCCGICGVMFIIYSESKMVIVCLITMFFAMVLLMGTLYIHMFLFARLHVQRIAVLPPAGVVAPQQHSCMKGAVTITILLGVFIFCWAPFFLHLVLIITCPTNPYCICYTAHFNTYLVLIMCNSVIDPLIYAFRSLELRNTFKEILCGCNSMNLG
mouse melanocortin-3 receptor (mouse), sequence (P33033 whole entry): as above

Turning to `CC(=O)N[C@H](Cc1ccc2ccccc2c1)C(=O)N[C@@H](CCCNC(=N)N)C(=O)N[C@@H](Cc1c[nH]c2ccccc12)C(=O)N[C@H](Cc1ccc2ccccc2c1)C(N)=O` [Peptide 17, Ac-DNal(2’)-Arg-Trp-DNal(2’)-NH2] (Ac-[d2Nal]RW[d2Nal]-NH2), at mMC3R, the “mMC3R percent maximal stimulatory response (compared to NDP-MSH)” value came out at 40% @100μM.
Regarding `CC(=O)N[C@H](Cc1ccc2ccccc2c1)C(=O)N[C@@H](CCCNC(=N)N)C(=O)N[C@H](Cc1ccc(I)cc1)C(=O)N[C@@H](CCCNC(=N)N)C(N)=O` [Peptide 21, Ac-DNal(2’)-Arg-DPhe(pI)-Arg-NH2] (Ac-[d2Nal]R[dPhe(4-I)]R-NH2), the “mMC1R agonist activity in words” value at mMC1R is recorded as “full agonist activity”.
In the case of `CC(=O)N[C@H](Cc1ccc(I)cc1)C(=O)N[C@@H](CCCNC(=N)N)C(=O)N[C@H](Cc1ccc(I)cc1)C(=O)N[C@H](CCCCN)C(N)=O` [Peptide 43, Ac-DPhe(pI)-Arg-DPhe(pI)-DLys-NH2] (Ac-[dPhe(4-I)]R[dPhe(4-I)][dK]-NH2), the “mMC1R agonist activity in words” value on mMC1R is “full agonist activity”.
With “Ac-DNal(2’)-DNal(2’)-DNal(2’)-Arg-NH2 (peptide)”, the % of maximal NDP-MSH response at 100 μM, cAMP AlphaScreen in assay [1] is 30%; in assay [2] it was 25%; in assay [4], 35%. In assay [3], this molecule came in with an agonist EC50, cAMP AlphaScreen of 0.13 µM. In addition, the pA2, antagonism of NDP-MSH at mMC4R, Schild analysis, cAMP AlphaScreen in assay [5] is under 5.5. The pA2, antagonism of NDP-MSH at mMC3R, Schild analysis, cAMP AlphaScreen in assay [6] is under 5.5.
`CC(=O)N[C@H](Cc1ccc2ccccc2c1)C(=O)N[C@H](Cc1ccc2ccccc2c1)C(=O)N[C@H](Cc1ccc2ccccc2c1)C(=O)N[C@@H](CCCNC(=N)N)C(N)=O` [Peptide 3, Ac-DNal(2’)-DNal(2’)-DNal(2’)-Arg-NH2]: the “mMC3R percent maximal stimulatory response (compared to NDP-MSH)” value at mMC3R stood at 35% @100μM.
In the case of `CC(=O)N[C@H](Cc1ccc2ccccc2c1)C(=O)N[C@H](Cc1ccc2ccccc2c1)C(=O)N[C@@H](Cc1c[nH]c2ccccc12)C(=O)N[C@@H](CCCNC(=N)N)C(N)=O` [Peptide 6, Ac-DNal(2’)-DNal(2’)-Trp-Arg-NH2] (Ac-[d2Nal][d2Nal]WR-NH2), on mMC3R, the “mMC3R percent maximal stimulatory response (compared to NDP-MSH)” value was found to be 35% @100μM.
For the molecule “Ac-DNal(2’)-DNal(2’)-DPhe(pI)-DLys-NH2 (peptide)”, in assay [1], the % of maximal NDP-MSH response at 100 μM, cAMP AlphaScreen came out at 20%. Also, the agonist EC50, cAMP AlphaScreen in assay [2], in assay [3] and in assay [4] was over 100 µM each time. Moreover, the pA2, antagonism of NDP-MSH at mMC4R, Schild analysis, cAMP AlphaScreen in assay [5] is under 5.5. Also, the pA2, antagonism of NDP-MSH at mMC3R, Schild analysis, cAMP AlphaScreen in assay [6] is under 5.5.
Turning to `CC(=O)N[C@H](Cc1ccc(I)cc1)C(=O)N[C@@H](CCCNC(=N)N)C(=O)N[C@@H](Cc1c[nH]c2ccccc12)C(=O)N[C@H](Cc1ccc2ccccc2c1)C(N)=O` [Peptide 41, Ac-DPhe(pI)-Arg-Trp-DNal(2’)-NH2] (Ac-[dPhe(4-I)]RW[d2Nal]-NH2), the “mMC3R percent maximal stimulatory response (compared to NDP-MSH)” value on mMC3R is reported as 25% @100μM.
As for `CC(=O)N[C@H](Cc1ccc(I)cc1)C(=O)N[C@@H](CCCNC(=N)N)C(=O)N[C@H](Cc1ccc(I)cc1)C(=O)N[C@@H](CCCNC(=N)N)C(N)=O` [Peptide 45, Ac-DPhe(pI)-Arg-DPhe(pI)-Arg-NH2] (Ac-[dPhe(4-I)]R[dPhe(4-I)]R-NH2), the “mMC1R agonist activity in words” value on mMC1R is “full agonist activity”.
Consider “Ac-DNal(2’)-Arg-DPhe(pI)-Arg-NH2 (peptide)”, for which the agonist EC50, cAMP AlphaScreen in assay [1] was 0.04 µM; in assay [2], over 100 µM; in assay [3], over 100 µM; in assay [4], over 100 µM. This molecule returned a pA2, antagonism of NDP-MSH at mMC4R, Schild analysis, cAMP AlphaScreen in assay [5] of 8.6. In assay [6], this molecule showed a pA2, antagonism of NDP-MSH at mMC3R, Schild analysis, cAMP AlphaScreen of 7.1.
As for Ac-[d2Nal][d2Nal]WR-NH2, the % of maximal NDP-MSH response at 100 μM, cAMP AlphaScreen in assay [1] worked out at 45%; in assay [2], 60%; in assay [3], 45%; in assay [4], 35%. Moreover, in assay [5], the pA2, antagonism of NDP-MSH at mMC4R, Schild analysis, cAMP AlphaScreen was under 5.5. Moreover, the pA2, antagonism of NDP-MSH at mMC3R, Schild analysis, cAMP AlphaScreen in assay [6] was under 5.5.
With `CC(=O)N[C@H](Cc1ccc2ccccc2c1)C(=O)N[C@@H](CCCNC(=N)N)C(=O)N[C@@H](Cc1ccc2ccccc2c1)C(=O)N[C@H](CCCCN)C(N)=O` [Peptide 22, Ac-DNal(2’)-Arg-Nal(2’)-DLys-NH2] (Ac-[d2Nal]R[2Nal][dK]-NH2), on mMC1R (partial agonists), the “mMC1R partial agonist percentage of receptor activation relative to NDP-MSH” value is reported as 50 % NDP.
For the molecule `CC(=O)N[C@H](Cc1ccc2ccccc2c1)C(=O)N[C@@H](CCCNC(=N)N)C(=O)N[C@H](Cc1ccc(I)cc1)C(=O)N[C@H](CCCCN)C(N)=O` [Peptide 19, Ac-DNal(2’)-Arg-DPhe(pI)-DLys-NH2], at mMC1R, the “mMC1R agonist activity in words” value is on record as “full agonist activity”.
Molecule “Ac-DNal(2’)-Arg-DNal(2’)-Arg-NH2 (peptide)” displayed a % receptor activation relative to NDP-MSH (partial agonist), cAMP AlphaScreen in assay [1] of 60%. Moreover, the apparent EC50 (partial agonist), cAMP AlphaScreen in assay [1] was determined as 1 µM. In addition, the agonist EC50, cAMP AlphaScreen in assay [2], in assay [3] and in assay [4] was over 100 µM in each case. In addition, the pA2, antagonism of NDP-MSH at mMC4R, Schild analysis, cAMP AlphaScreen in assay [5] is 8.3. For the same molecule, the pA2, antagonism of NDP-MSH at mMC3R, Schild analysis, cAMP AlphaScreen in assay [6] stood at 6.1.
Turning to “Ac-DNal(2’)-Arg-DPhe(pI)-DLys-NH2 (peptide)”, the agonist EC50, cAMP AlphaScreen was 0.22 µM in assay [1], over 100 µM in assay [2], over 100 µM in assay [3] and over 100 µM in assay [4]. Also, the pA2, antagonism of NDP-MSH at mMC4R, Schild analysis, cAMP AlphaScreen in assay [5] stood at 8.5. The same molecule came in with a pA2, antagonism of NDP-MSH at mMC3R, Schild analysis, cAMP AlphaScreen in assay [6] of 6.9.
In assay [1], “Ac-DPhe(pI)-Arg-DNal(2’)-DLys-NH2 (peptide)” came in with a % receptor activation relative to NDP-MSH (partial agonist), cAMP AlphaScreen of 30%. In assay [1], the apparent EC50 (partial agonist), cAMP AlphaScreen worked out at 3.5 µM. For the same molecule, the agonist EC50, cAMP AlphaScreen in assay [2], in assay [3] and in assay [4] was over 100 µM each time. This molecule also came in with a pA2, antagonism of NDP-MSH at mMC4R, Schild analysis, cAMP AlphaScreen in assay [5] of 8.6. Moreover, the pA2, antagonism of NDP-MSH at mMC3R, Schild analysis, cAMP AlphaScreen in assay [6] was 7.2.
In assay [1], “Ac-DNal(2’)-Arg-DNal(2’)-DNal(2’)-NH2 (peptide)” had a % receptor activation relative to NDP-MSH (partial agonist), cAMP AlphaScreen of 85%. In addition, the apparent EC50 (partial agonist), cAMP AlphaScreen in assay [1] came to 5 µM. In addition, the figures for the % of maximal NDP-MSH response at 100 μM, cAMP AlphaScreen in assay [2], in assay [3] and in assay [4] were 45%, 20% and 50%, respectively. The same molecule yielded a pA2, antagonism of NDP-MSH at mMC4R, Schild analysis, cAMP AlphaScreen in assay [5] of 6.3. Moreover, the pA2, antagonism of NDP-MSH at mMC3R, Schild analysis, cAMP AlphaScreen in assay [6] amounted to 5.7.
Turning to “Ac-DPhe(pI)-Arg-DNal(2’)-DNal(2’)-NH2 (peptide)”, the % of maximal NDP-MSH response at 100 μM, cAMP AlphaScreen in assay [1] was found to be 80%; in assay [2], 45%; in assay [3], 20%; in assay [4], 45%. In addition, in assay [5], the pA2, antagonism of NDP-MSH at mMC4R, Schild analysis, cAMP AlphaScreen stood at 6.7. In addition, in assay [6], the pA2, antagonism of NDP-MSH at mMC3R, Schild analysis, cAMP AlphaScreen turned out to be 6.1.

B1: Ac-DPhe(pI)-Arg-DPhe(pI)-Arg-NH2 (peptide)
peptide: Ac-[dPhe(4-I)]R[dPhe(4-I)]R-NH2
SMILES: CC(=O)N[C@H](Cc1ccc(I)cc1)C(=O)N[C@@H](CCCNC(=N)N)C(=O)N[C@H](Cc1ccc(I)cc1)C(=O)N[C@@H](CCCNC(=N)N)C(N)=O
On to B1, for which the agonist EC50, cAMP AlphaScreen in assay [1] is 0.007 µM; in assay [2], over 100 µM; in assay [3] it was over 100 µM; in assay [4] it was over 100 µM. In assay [5], this molecule yielded a pA2, antagonism of NDP-MSH at mMC4R, Schild analysis, cAMP AlphaScreen of 8.5. The molecule also gave a pA2, antagonism of NDP-MSH at mMC3R, Schild analysis, cAMP AlphaScreen in assay [6] of 7.4.

B2: Ac-DPhe(pI)-Arg-Trp-DLys-NH2 (peptide)
peptide: Ac-[dPhe(4-I)]RW[dK]-NH2
SMILES: CC(=O)N[C@H](Cc1ccc(I)cc1)C(=O)N[C@@H](CCCNC(=N)N)C(=O)N[C@@H](Cc1c[nH]c2ccccc12)C(=O)N[C@H](CCCCN)C(N)=O
As for B2, the agonist EC50, cAMP AlphaScreen in assay [1], in assay [2], in assay [3] and in assay [4] was over 100 µM throughout. Besides, in assay [5], the pA2, antagonism of NDP-MSH at mMC4R, Schild analysis, cAMP AlphaScreen is 7.6. This molecule had a pA2, antagonism of NDP-MSH at mMC3R, Schild analysis, cAMP AlphaScreen in assay [6] of 6.2.

B3: Ac-DPhe(pI)-Arg-Trp-Arg-NH2 (peptide)
peptide: Ac-[dPhe(4-I)]RWR-NH2
SMILES: CC(=O)N[C@H](Cc1ccc(I)cc1)C(=O)N[C@@H](CCCNC(=N)N)C(=O)N[C@@H](Cc1c[nH]c2ccccc12)C(=O)N[C@@H](CCCNC(=N)N)C(N)=O
For B3, the % receptor activation relative to NDP-MSH (partial agonist), cAMP AlphaScreen in assay [1] was found to be 50%. Also, the apparent EC50 (partial agonist), cAMP AlphaScreen in assay [1] is 7.9 µM. Also, the agonist EC50, cAMP AlphaScreen in assay [2] and in assay [3] was over 100 µM each time. The molecule further gave a % of maximal NDP-MSH response at 100 μM, cAMP AlphaScreen in assay [4] of 25%. In addition, the pA2, antagonism of NDP-MSH at mMC4R, Schild analysis, cAMP AlphaScreen in assay [5] is 8.7. In assay [6], this molecule displayed a pA2, antagonism of NDP-MSH at mMC3R, Schild analysis, cAMP AlphaScreen of 7.4.

B4: Ac-DPhe(pI)-Arg-DPhe(pI)-DLys-NH2 (peptide)
peptide: Ac-[dPhe(4-I)]R[dPhe(4-I)][dK]-NH2
SMILES: CC(=O)N[C@H](Cc1ccc(I)cc1)C(=O)N[C@@H](CCCNC(=N)N)C(=O)N[C@H](Cc1ccc(I)cc1)C(=O)N[C@H](CCCCN)C(N)=O
Take B4: the agonist EC50, cAMP AlphaScreen in assay [1] was 0.035 µM; in assay [2], over 100 µM; in assay [3] it was over 100 µM; in assay [4] it was over 100 µM. In assay [5], this molecule came in with a pA2, antagonism of NDP-MSH at mMC4R, Schild analysis, cAMP AlphaScreen of 8.5. This molecule also had a pA2, antagonism of NDP-MSH at mMC3R, Schild analysis, cAMP AlphaScreen in assay [6] of 7.5.
